Measurements reported in patent US20150182631A1, “SYSTEM FOR […]-BASED ACTIVE INGREDIENTS” (Centre National De La Recherche Scientifique-CNRS, priority 2012, published 2015).

Experiments:
[1] = target: the molecule itself; assay: isothermal titration calorimetry, dilution of concentrated XCL into buffer; tetramer-dimer equilibrium; tetramer-dimer equilibrium of XCL by dilution ITC
Method: In order to accurately measure the equilibrium constant of tetramerisation and also determine the thermodynamics of the tetramerisation of XCL, the inventors used isothermal titration calorimetry (Burrows et al., (1994) Lovatt et al., (1996) Barranco-Medina et al. (2009)). In this method, a concentrated solution of XCL was diluted in a buffer, and the dissociation heat of the dimers (or of the monomers) was measured. The quantity of heat released for each injection is governed by the enthalpy exchange from the tetramer to the dimer and the tetramer-dimer equilibrium constant.

[2] = SDS-PAGE of tetramer and disulphide bridge stability; type: physicochemical; settings: reduced glutathione 10 mM in oxidation buffer
Method: The clone A38C was obtained by directed mutagenesis by using the XCL plasmid as a matrix and the protein produced and purified by using the same protocol as that used to produce XCL (Trigueros et al. (2003)). A yield of 25 mg of purified protein per litre of culture was obtained. The last part of the protocol consisted in a step of oxidation for 12 hours in the presence of 10 mM of oxidised glutathione. This step is required in order to produce disulphide bridges between the monomers. The forming of these covalent bonds was verified by SDS-PAGE. Two SDS-PAGE were prepared. Beta-mercaptoethanol was added to the samples in the first gel while beta-mercaptoethanol was not added to the second gel. When XCL is heated to 95° C. 5 min before the deposit, a single band is observed with a molecular weight slightly greater than 20 kDa on the two gels. This band corresponds to the species in monomer form.
A variant T12C was produced in the same manner as A38C by directed mutagenesis by using the XCL plasmid as a matrix. By using the same protocol, 10 mg of protein per litre of culture were produced. The oxidation rate of the variant T12C was sought by using the same method by SDS-PAGE as for A38C. These rates were compared with those obtained with the variant A38C. Several oxidative conditions were tested with different concentrations of reduced glutathione. […]

[3] = Confinement of fluorescein in the lectin cavity; settings: 4 days at ambient temperature, free fluorescein eliminated again
Method: The confinement experiments are carried out by incubating the wild-type protein (XCL) or the mutants (A38C) with the molecule to be tested. In order to carry out the control experiments with the mutant A38C, an oxidation step is carried out in the presence of GSSG in a phosphate buffer 50 mM, 100 mM NaCl, pH 7.2, OVN. The GSSG is then eliminated on a PD-10 sephadex G-25M column (GE Healthcare) pre-balanced in a phosphate buffer 50 mM, 100 mM NaCl, pH 8.5. The eluate is concentred at 1 ml on Vivaspin 15R 30,000 MWCO (Sartorius stedim). A batch of A38C is reduced to TCEP (under argon) with adding of NaOH for a final pH of 8.5. […] The quantity of fluorescein is measured by using an absorption coefficient of e511 nm=75,000 cm^−1 M^−1. The concentrations of XCL and of A38C after the confinement are calculated with e278 nm=[…]. The percentage of confinement is calculated by forming the ratio of the fluorescein/protein concentrations.
In the case with XCL, the inventors incubated the protein (15 μM) with fluorescein (10 mM) and then separated the protein from the non-confined molecules of fluorescein by two successive gel filtration columns. Beforehand, the inventors verified that if these two columns on the fluorescein solution are carried out at 10 mM, no residual free fluorescein is detected. […]

[4] = Chemical dissociation by size exclusion chromatography at acidic pH; type: physicochemical
Method: The size exclusion chromatography experiments were carried out on a GE-Healthcare Superose 12 PC 3.2/30 column. The columns are pre-balanced in the buffer tested, namely phosphate buffer 50 mM, 100 mM NaCl, pH7.2 or pH 4.4 in the absence or in the presence of 0.003% of SDS. The flow rate is 0.5 mL/min. The BSA and the RNase A are used as a size marker.
The inventors studied the behaviour of XCL in denaturing chemical conditions close to those encountered in the lysosomes. The analysis was carried out via exclusion chromatography with an acidic pH (pH 4.4). It appears that the elution peak of XCL in these denaturing conditions is displaced to greater elution volumes showing the appearance of a smaller size. When 0.003% SDS is added, the elution peak is displaced to the elution volume of the RNAse A which has a molecular weight close to the XCL monomer.
The behaviour of the oxidised mutant A38C was also analysed. […] The addition of the disulphide bridge therefore increases the stability of the protein assembly.

[5] = Balanced FRET, exchange of monomers; type: physicochemical; settings: 1 h incubation, pH 8.5
Method: Fluorescence energy transfer was used to reveal the exchange of the XCL monomers. The exchange reaction is initiated by mixing the same volume of XCL-RITC (1 μM or only the buffer as a reference) and of XCL-FITC (1 μM) at 25° C. in 50 mM of phosphate buffer, 100 mM NaCl, pH 8.5. After one hour of incubation, the emission spectrum of the sample excited at 490 nm is recorded by spectrofluorimetry (Photon Technology International QM-4). The same experiments were carried out with A38C-RITC and A38C-FITC.
The oligomerization balance of the XCL protein was characterised by the measurement of the appearance of resonance energy transfer of the Förster type (FRET) between two populations of XCL labelled separately either with FITC (Fluorescein IsoThioCyanate) or with RITC (Rhodamine IsoThioCyanate).
In this same figure, is also shown the spectrum obtained by mixing the labelled protein, either by the donor or by the acceptor (dotted line curve). This spectrum was deconvoluted, which gives the spectra shown as a dotted line in FIG. 2A.
For the purposes of comparison, the same experiment was carried out with the variant A38C. This variant is covalently bonded by two additional disulphide bridges. A perfectly superimposable spectrum was obtained after mixing donor and acceptor labelled proteins and incubation of this mixture for 1 h at ambient temperature (dotted lines of FIG. 3B).

XCL labelled with RITC [6] = target: T1, XCL labelled with RITC (Xerocomus chrysenteron, RITC on surface epsilon-amino groups, 0.9 mol of RITC per mol of XCL); assay: FRET kinetics at 580 nm after mixing XCL-FITC and XCL-RITC, double exponential fit; slow dissociation of the tetramer (proportion a=0.39); k1, slower of the two dissociation pathways of the tetramer
T1 construct: FRET acceptor population of XCL; also called RITC-XCL; XCL-RITC
T1 chain: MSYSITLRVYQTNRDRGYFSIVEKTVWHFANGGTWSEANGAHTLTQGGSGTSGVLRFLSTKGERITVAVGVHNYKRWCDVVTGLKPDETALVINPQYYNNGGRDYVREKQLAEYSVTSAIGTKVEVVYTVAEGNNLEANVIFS
Method: (§1) The speed of the exchange of subunits was measured by the same technique. The reaction is initiated by mixing the same volume of XCL-RITC (1 μM) and of XCL-FITC (1 μM) at 25° C. in 50 mM of phosphate buffer, 100 mM NaCl, pH 8.5. The excitation is carried out at 468 nm and the fluorescence emission at 580 nm is recorded every 0.5 seconds. The fluorescence intensity is normalised by using the equation: […]

XCL labelled with RITC [7] = target: T1, XCL labelled with RITC; assay: FRET kinetics at 580 nm after mixing XCL-FITC and XCL-RITC, double exponential fit; fast dissociation of the tetramer; k2, faster of the two dissociation pathways of the tetramer
Method: as §1

[8] = target: the molecule itself; assay: size exclusion chromatography at pH 7.2 and pH 4.4; tetramer kept
Method: The behaviour of the oxidised mutant A38C was also analysed. […] When the pH is decreased to 4.4, no modification in the elution volume is observed. The addition of the disulphide bridge therefore increases the stability of the protein assembly. The adding of 0.003% SDS leads to the dissociation of the tetramer into dimers, constituted of monomers bonded together by the disulphide bridge.

B1: Xerocomus chrysenteron lectin (XCL) (other)
chain: MSYSITLRVYQTNRDRGYFSIVEKTVWHFANGGTWSEANGAHTLTQGGSGTSGVLRFLSTKGERITVAVGVHNYKRWCDVVTGLKPDETALVINPQYYNNGGRDYVREKQLAEYSVTSAIGTKVEVVYTVAEGNNLEANVIFS
notes: Recombinant fungal lectin, a homotetramer in solution; also called wild-type protein; native XCL protein
Kd [1]: 4.5 µM

B2: T12C: XCL variant with threonine 12 replaced by cysteine, SEQ ID NO: 3 (protein)
chain: MSYSITLRVYQCNRDRGYFSIVEKTVWHFANGGTWSEANGAHTLTQGGSGTSGVLRFLSTKGERITVAVGVHNYKRWCDVVTGLKPDETALVINPQYYNNGGRDYVREKQLAEYSVTSAIGTKVEVVYTVAEGNNLEANVIFS
modifications: Variant T12C
stability of the additional disulphide bridge [2]: less stable than the disulphide bridge of A38C

B3: A38C: XCL variant with alanine 38 replaced by cysteine, SEQ ID NO: 2; A38R reduced before confinement, A38NR not reduced, A38Cox oxidised (protein)
chain: MSYSITLRVYQTNRDRGYFSIVEKTVWHFANGGTWSECNGAHTLTQGGSGTSGVLRFLSTKGERITVAVGVHNYKRWCDVVTGLKPDETALVINPQYYNNGGRDYVREKQLAEYSVTSAIGTKVEVVYTVAEGNNLEANVIFS
modifications: Variant A38C
notes: A38R reduced before confinement, A38NR not reduced, A38Cox oxidised
confinement rate after incubation [3]: remained unchanged | oligomeric state by elution volume at pH 4.4 with SDS ([4]; pH 4.4, 0.003% SDS): dissociation of the tetramer into dimers | oligomeric state by elution volume at pH 4.4 ([4]; pH 4.4, no SDS): no modification in the elution volume is observed | FRET between FITC- and RITC-labelled protein after mixing (monomer redistribution) [5]: no FRET is observed

B4: XCL labelled with FITC (other)
chain: MSYSITLRVYQTNRDRGYFSIVEKTVWHFANGGTWSEANGAHTLTQGGSGTSGVLRFLSTKGERITVAVGVHNYKRWCDVVTGLKPDETALVINPQYYNNGGRDYVREKQLAEYSVTSAIGTKVEVVYTVAEGNNLEANVIFS
modifications: FITC on surface epsilon-amino groups, 4 mol of FITC per mol of XCL
notes: FRET donor population of XCL; also called FITC-XCL; XCL-FITC
koff (XCL labelled with RITC [6]): 0.012 s⁻¹ | koff (XCL labelled with RITC [7]): 0.042 s⁻¹

B5: XCL variant A38C, oxidised (other)
chain: MSYSITLRVYQTNRDRGYFSIVEKTVWHFANGGTWSECNGAHTLTQGGSGTSGVLRFLSTKGERITVAVGVHNYKRWCDVVTGLKPDETALVINPQYYNNGGRDYVREKQLAEYSVTSAIGTKVEVVYTVAEGNNLEANVIFS
modifications: interchain disulphide bridge between Cys 38 of opposite monomers (oxidised with GSSG)
notes: Homotetramer with two added disulphide bridges that link monomers diagonally; In the FRET experiment it was labelled with FITC or RITC; also called mutant A38C; oxidised mutant A38C
binding result [8]: binds
